Data set [1] has as its target T1, Full-length human NT5E (recombinant, secreted) (human).
T1 chain: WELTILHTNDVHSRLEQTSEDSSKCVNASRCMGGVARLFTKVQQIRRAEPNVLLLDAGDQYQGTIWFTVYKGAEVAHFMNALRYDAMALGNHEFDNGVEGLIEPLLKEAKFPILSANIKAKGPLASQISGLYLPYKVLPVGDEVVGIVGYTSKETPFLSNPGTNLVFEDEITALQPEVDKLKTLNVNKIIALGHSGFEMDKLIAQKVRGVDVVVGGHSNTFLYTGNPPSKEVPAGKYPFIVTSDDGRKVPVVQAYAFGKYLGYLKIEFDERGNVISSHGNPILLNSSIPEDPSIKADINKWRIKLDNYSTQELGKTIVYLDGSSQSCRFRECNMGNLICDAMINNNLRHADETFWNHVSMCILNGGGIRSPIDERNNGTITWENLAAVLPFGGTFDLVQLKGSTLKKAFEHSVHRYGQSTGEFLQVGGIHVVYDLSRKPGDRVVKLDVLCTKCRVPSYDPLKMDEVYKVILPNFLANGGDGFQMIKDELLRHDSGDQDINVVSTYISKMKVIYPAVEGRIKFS
Description: SPR, NT5E on NTA chip via His-tag, 1 mM ATP.

The target in data set [2] is T1, Full-length human NT5E (recombinant, …). Nature of the data set: protein ELISA, immobilised biotinylated NT5E, 1 mM ATP.
Data set [3] has the same target. Description: SPR, NT5E on NTA chip via His-tag, no ATP.
In data set [4] the target is T2, Full-length murine NT5E (recombinant, secreted) (murine).
T2 chain: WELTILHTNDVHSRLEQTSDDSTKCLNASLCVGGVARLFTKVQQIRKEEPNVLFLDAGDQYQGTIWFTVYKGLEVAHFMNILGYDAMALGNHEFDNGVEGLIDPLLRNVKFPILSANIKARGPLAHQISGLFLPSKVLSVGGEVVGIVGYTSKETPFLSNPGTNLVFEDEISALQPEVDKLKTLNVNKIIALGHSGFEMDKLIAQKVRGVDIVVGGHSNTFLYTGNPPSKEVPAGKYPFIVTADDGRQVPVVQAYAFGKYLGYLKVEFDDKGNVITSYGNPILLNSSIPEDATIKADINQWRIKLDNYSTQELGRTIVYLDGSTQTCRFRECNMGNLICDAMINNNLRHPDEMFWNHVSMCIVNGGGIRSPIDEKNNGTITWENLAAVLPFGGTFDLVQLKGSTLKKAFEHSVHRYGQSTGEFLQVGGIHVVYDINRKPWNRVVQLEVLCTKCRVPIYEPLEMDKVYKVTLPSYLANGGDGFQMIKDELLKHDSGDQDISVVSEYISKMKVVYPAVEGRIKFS
Nature of the data set: SPR, NT5E on NTA chip via His-tag, 1 mM ATP; SPR, Fab, 1 mM ATP.

Data set [5] has as its target T2, Full-length murine NT5E (recombinant, …). Nature of the data set: protein ELISA, immobilised biotinylated NT5E, 1 mM ATP; protein ELISA, Fab, 1 mM ATP (EC50ATP).
The target in data set [6] is T3, hNT5EFF (F417A/F500A mutant of hNT5E) (human, UniProt P21589 27-549).
T3 sequence (looked up): T1 chain with A350T, T353M, F391A, F474A
Nature of the data set: cell-based or functional assay.

Data set [7] has as its target hNT5EDF (substrate binding knock-out variant of human NT5E) (human). Nature of the data set: cell-based or functional assay.
Data set [8] addresses T1, Full-length human NT5E (recombinant, …). Description: cell-based or functional assay.
The target in data set [9] is T2, Full-length murine NT5E (recombinant, …). Nature of the data set: SPR, no ATP.
For data set [10], the target named is T1, Full-length human NT5E (recombinant, …). Nature of the data set: SPR, no ATP.
Data set [11] has as its target T2, Full-length murine NT5E (recombinant, …). Nature of the data set: SPR, 1 mM ATP.
Data set [12] deals with T1, Full-length human NT5E (recombinant, …). Description: SPR, 1 mM ATP.
Data set [13] addresses T2, Full-length murine NT5E (recombinant, …). Nature of the data set: SPR, no ATP; footnote *: data generated poor fits.
Data set [14] has the same target. Description: protein ELISA, immobilised biotinylated NT5E, 1 mM ATP.
Data set [15] addresses T1, Full-length human NT5E (recombinant, …). Description: protein ELISA, immobilised biotinylated NT5E, no ATP (apo).

The record followed here is US20260022186A1 (UNIVERSITY OF CHICAGO, published 2026).

Residue numbers refer to the chain shown, from its start.

B1: 1789 Fab (Fab, V domains shown)
VH: EVQLVESGGGLVQPGGSLRLSCAASGFNVSYSSIHWVRQAPGKGLEWVASISSSSGYTYYADSVKGRFTISADTSKNTAYLQMNSLRAEDTAVYYCARNYWGWYPFYYFAFDYWGQGTLVTV
VL: DIQMTQSPSSLSASVGDRVTITCRASQSVSSAVAWYQQKPGKAPKLLIYSASSLYSGVPSRFSGSRSGTDFTLTISSLQPEDFATYYCQQGWDYPITFGQGTKVEIKR
B1: the dissociation constant Kd in data set [1] stood at 42 nM; in [3] it was 760 nM; in data set [4], 160 nM. For the same molecule, the dissociation rate constant (koff) in data set [1] worked out at 0.0073 s⁻¹; in data set [3], 0.044 s⁻¹; in data set [4] it was 0.014 s⁻¹. Also, the kon in data set [1] amounted to 170000 M⁻¹ s⁻¹; in [3], 57000 M⁻¹ s⁻¹; in data set [4] it was 85000 M⁻¹ s⁻¹. Further, the EC50 in data set [2] was determined as 37 nM; in [5] it was 132 nM. The entries for the “TM of NT5E by differential scanning fluorimetry with 1789 Fab, 1 mM ATP” value in [6], in data set [7] and in data set [8] were 46 ° C, 46 ° C and 66 ° C, respectively. Further, the “TM of NT5E by differential scanning fluorimetry with 1789 Fab, No ATP” value in data set [6] turned out to be 47 ° C; in data set [7] it was 48 ° C; in data set [8], 48 ° C.

B2: 1789 AM32 Fab (Fab, V domains shown)
VH: B1 VH with S50R, S52R, S53G, S54N, S55E, Y57D
VL: B1 VL
notes: also called Fab32
B2: the dissociation constant Kd in data set [9] worked out at 150 nM; in [10], 86 nM; in data set [11], 15 nM; in data set [12], 15 nM. In addition, the koff turned out to be 0.011 s⁻¹ in [9], 0.0091 s⁻¹ in data set [10], 0.0028 s⁻¹ in [11] and 0.0042 s⁻¹ in data set [12]. The kon in [9] was found to be 78000 M⁻¹ s⁻¹; in data set [10], 110000 M⁻¹ s⁻¹; in [11], 190000 M⁻¹ s⁻¹; in data set [12], 270000 M⁻¹ s⁻¹.

B3: 1789 AM42 Fab (Fab, V domains shown)
VH: B1 VH with S50K, S52R, S53G, S54G, S55H, G56Q, Y57D, Y59H
VL: B1 VL
For B3, the Kd came to 63 nM in data set [9], 38 nM in [10], 12 nM in [11] and 11 nM in data set [12]. Also, the dissociation rate constant (koff) in data set [9] came to 0.012 s⁻¹; in [10], 0.0067 s⁻¹; in data set [11], 0.0029 s⁻¹; in data set [12], 0.0036 s⁻¹. Further, the association rate constant (kon) in data set [9] stood at 190000 M⁻¹ s⁻¹; in data set [10], 180000 M⁻¹ s⁻¹; in [11], 250000 M⁻¹ s⁻¹; in data set [12], 320000 M⁻¹ s⁻¹.

B4: 1789 AM39 Fab (Fab, V domains shown)
VH: B1 VH with S52R, S53G, S54A, S55G, G56S, Y57D, Y59R
VL: B1 VL
On to B4, for which the koff in data set [9] was 0.013 s⁻¹; in data set [10], 0.0099 s⁻¹; in [11], 0.0035 s⁻¹; in data set [12] it was 0.0039 s⁻¹. Moreover, the on-rate (kon) in data set [9] came to 140000 M⁻¹ s⁻¹; in data set [10] it was 280000 M⁻¹ s⁻¹; in data set [11], 290000 M⁻¹ s⁻¹; in data set [12] it was 490000 M⁻¹ s⁻¹. Besides, the Kd in data set [10] came out at 35 nM; in data set [11], 12 nM; in data set [12] it was 7.9 nM; in data set [13], 99 nM.

B5: 1789 IgG (antibody, V domains shown)
VH: EVQLVESGGGLVQPGGSLRLSCAASGFNVSYSSIHWVRQAPGKGLEWVASISSSSGYTYYADSVKGRFTISADTSKNTAYLQMNSLRAEDTAVYYCARNYWGWYPFYYFAFDYWGQGTLVTVSS
VL: B1 VL
Take B5: the EC50 stood at 1.14 nM in data set [14], 0.86 nM in data set [2] and 2.14 nM in data set [15].
